According to patent US10561711B2, “Rapid action insulin formulations and pharmaceutical delivery systems” (Thermalin Inc., priority 2014, dated 2020):
Where two headings read alike, the source gives them in different places.

Assay: Migration through porcine skin tissue under electric field (modified Franz apparatus)
Protocol: The effect of an electric field was explored on migration through the subcutis using fresh porcine abdominal skin tissue obtained from local abattoirs. To do this, a modified Franz apparatus was developed that could test up to 12 samples simultaneously (FIGS. 12A, 12B). Full-thickness porcine skin tissue plugs that were three cm in diameter were placed subcutis-down in individual wells over reservoirs containing cathodes below 2 ml of test solution. The device was then inverted to run the experiments.
Tissue and test solution were maintained at 37° C. using a heat lamp and monitored with a digital thermometer probe placed between the plexiglass plates, adjacent to the tissues. Anodes were inserted into conductive paste placed on the epidermal surface. Utilizing multiple electrophoresis power sources, 10V or 20V of electromotive potential was then run across each cathode-anode pair for one hour.
We tested the apparatus using a solution of bromophenol blue (BPB), a 0.67 kDa dye that appears blue above pH 4.6 and carries a negative charge near neutral pH similar to that of insulin. […]
One microscope slide was stained with H&E; an adjacent slide was stained with a Guinea pig polyclonal antibody (Ab) (Abcam ab7842), which was detected by a goat anti-Guinea pig polyclonal IgG H&L (Alexa Fluor® 594; Abcam ab150188).

Compound | migration through porcine skin layers with voltage applied | migration through porcine skin layers with voltage applied (10 V, 37° C., about one hour, test solution on subcutaneous surface)
Cy5-insulin: human insulin conjugated to cyanine-5-NHS-ester fluorophore (P/N IS1-S5-1, Nanocs, Inc.) | migration of the fluorescence-tagged insulin through the full skin thickness | –
O=S1(=O)OC(c2cc(Br)c(O)c(Br)c2)(c2cc(Br)c(O)c(Br)c2)c2ccccc21 [bromophenol blue] | – | dye penetrated through the subcutis in voltage-treated tissue
